Biological target: T1, ErbB-3, endogenous in AU565 cells (human (endogenous in AU565), UniProt P21860 20-1342)
T1 construct: ErbB-3, endogenous in the human AU565 mammary carcinoma cell line; source: endogenous, AU565 lysate
Experiment: co-IP; AU565 cells untreated, HRG (10 ng ml-1, 15 min) or EGF (50 ng ml-1, 15 min); cytoplasmic fractions in IP buffer (50 mM Tris pH 8.0, 120 mM NaCl, 0.5% NP-40); ErbB-3 immunoprecipitation, blot with anti-p38-2G4 and anti-ErbB-3; densitometry
Conditions: partners not purified

T1 sequence (P21860 20-1342): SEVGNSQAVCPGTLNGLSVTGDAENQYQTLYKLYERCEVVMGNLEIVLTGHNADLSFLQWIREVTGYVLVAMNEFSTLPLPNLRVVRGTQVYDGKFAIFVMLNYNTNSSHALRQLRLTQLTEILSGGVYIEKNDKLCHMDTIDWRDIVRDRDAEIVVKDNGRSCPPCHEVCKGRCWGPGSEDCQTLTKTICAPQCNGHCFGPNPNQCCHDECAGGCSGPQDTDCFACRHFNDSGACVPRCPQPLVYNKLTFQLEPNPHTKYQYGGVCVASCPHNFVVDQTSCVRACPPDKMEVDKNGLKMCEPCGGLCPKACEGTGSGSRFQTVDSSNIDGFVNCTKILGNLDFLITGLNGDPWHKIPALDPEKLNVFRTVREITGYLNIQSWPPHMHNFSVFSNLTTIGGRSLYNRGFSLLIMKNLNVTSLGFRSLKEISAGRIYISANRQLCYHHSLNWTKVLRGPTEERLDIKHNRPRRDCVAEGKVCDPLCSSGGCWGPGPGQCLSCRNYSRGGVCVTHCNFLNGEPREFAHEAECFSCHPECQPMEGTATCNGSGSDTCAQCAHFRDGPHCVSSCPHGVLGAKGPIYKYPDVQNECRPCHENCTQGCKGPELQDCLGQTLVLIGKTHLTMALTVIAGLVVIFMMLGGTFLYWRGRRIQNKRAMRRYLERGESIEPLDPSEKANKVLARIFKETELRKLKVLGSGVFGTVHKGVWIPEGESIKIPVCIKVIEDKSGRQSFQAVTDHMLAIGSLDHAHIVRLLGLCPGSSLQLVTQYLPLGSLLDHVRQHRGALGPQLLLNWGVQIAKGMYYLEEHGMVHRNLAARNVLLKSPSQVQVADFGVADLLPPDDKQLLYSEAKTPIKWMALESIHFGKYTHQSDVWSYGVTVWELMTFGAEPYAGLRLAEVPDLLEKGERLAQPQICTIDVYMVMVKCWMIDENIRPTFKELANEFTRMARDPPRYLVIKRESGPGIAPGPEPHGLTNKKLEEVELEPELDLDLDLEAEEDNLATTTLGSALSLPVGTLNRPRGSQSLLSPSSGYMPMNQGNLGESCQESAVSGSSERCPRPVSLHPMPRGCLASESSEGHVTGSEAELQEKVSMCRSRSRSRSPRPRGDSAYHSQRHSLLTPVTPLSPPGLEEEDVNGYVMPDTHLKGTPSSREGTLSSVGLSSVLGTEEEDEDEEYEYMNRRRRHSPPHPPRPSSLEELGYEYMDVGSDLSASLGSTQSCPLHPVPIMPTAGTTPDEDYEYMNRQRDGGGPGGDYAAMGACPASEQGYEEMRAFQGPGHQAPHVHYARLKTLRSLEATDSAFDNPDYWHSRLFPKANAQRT

B1: Ebp1, endogenous approximately 50 kDa protein in AU565 cells (natural protein, human (endogenous in AU565), UniProt Q9UQ80 1-394, looked up)
chain: MSGEDEQQEQTIAEDLVVTKYKMGGDIANRVLRSLVEASSSGVSVLSLCEKGDAMIMEETGKIFKKEKEMKKGIAFPTSISVNNCVCHFSPLKSDQDYILKEGDLVKIDLGVHVDGFIANVAHTFVVDVAQGTQVTGRKADVIKAAHLCAEAALRLVKPGNQNTQVTEAWNKVAHSFNCTPIEGMLSHQLKQHVIDGEKTIIQNPTDQQKKDHEKAEFEVHEVYAVDVLVSSGEGKAKDAGQRTTIYKRDPSKQYGLKMKTSRAFFSEVERRFDAMPFTLRAFEDEKKARMGVVECAKHELLQPFNVLYEKEGEFVAQFKFTVLLMPNGPMRITSGPFEPDLYKSEMEVQDAELKALLQSSASRKTQKKKKKKASKTAENATSGETLEENEAGD
notes: Ebp1 (PA2G4), endogenous full-length protein of approximately 50 kDa in the human AU565 mammary carcinoma cell line; predicted protein of 394 amino acid residues; also called PA2G4; source: endogenous, AU565 lysate
ratio of Ebp1 to ErbB-3 in ErbB-3 immunoprecipitates (densitometry), EGF-treated cells: 1.3 | ratio of Ebp1 to ErbB-3 in ErbB-3 immunoprecipitates (densitometry), control cells: 1.6 | ratio of Ebp1 to ErbB-3 in ErbB-3 immunoprecipitates (densitometry), heregulin-treated cells: 0.3
